Source: the supplement of paper PMC10567573

B1: PPP2R2C (parent)
chain: YSSSKGSLRLCDMRAAALCDKHSK

Variants of: B1
Experiment: protein stability index of a GFP-peptide fusion (GPS, HEK-293T) (PSI 1-6); higher = more stable
Details: c terminus: a fixed tail appended
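Also: lentivirally expressed fusions sorted by FACS into six bins by GFP to DsRed ratio, PSI derived from sequencing read proportions per bin multiplied by bin number.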

Protein stability index of substitutions, site by site:
M13: R 1.68 | S 1.65 | T 2.21 | V 2.07 | W 1.61 | Y 3.27
R14: A 2.03 | C 2.89 | D 1.55 | E 2.3 | F 2.27 | G 2.13 | H 2.34 | K 1.68 | L 2.18 | M 2.29 | N 2.48 | P 1.8 | Q 1.27 | S 2.02 | T 1.98 | V 1.81 | W 1.69 | Y 2.45
A15: C 1.14 | D 1.72 | E 2.61 | F 2.4 | G 2.24 | H 1.78 | I 1.96 | K 1.58 | L 1.54 | M 2.72 | N 2.54 | P 2.43 | Q 1.77 | R 1.38 | S 2.31 | T 2.09 | V 1.6 | W 1.81 | Y 2.34
A16: C 2.56 | D 2.85 | E 2.28 | F 2.2 | G 2.55 | H 2.06 | I 1.84 | K 2.53 | L 1.3 | M 1.5 | N 2.05 | P 1.64 | Q 2.18 | R 2.04 | S 2.02 | T 1.97 | V 1.82 | W 1.23 | Y 1.63
A17: C 2.06 | D 1.51 | E 2.16 | F 2.36 | G 1.61 | H 2.29 | I 1.39 | K 1.85 | L 1.75 | M 1.79 | N 3.18 | P 2.1 | Q 3.18 | R 1.78 | S 1.31 | T 1.52 | V 3.45 | W 2.33 | Y 2.06
L18: A 2.15 | C 1.55 | D 1.48 | E 1.9 | F 1.69 | G 1.52 | H 2.03 | I 1.96 | K 1.73 | M 1.13 | N 1.65 | P 1.58 | Q 2.17 | R 1.96 | S 1.79 | T 1.81 | V 2.02 | W 1.44 | Y 1.8
C19: A 1.74 | D 2.3 | E 1.62 | F 2.32 | G 1.25 | H 1.56 | I 2.03 | K 2.14 | L 1.55 | M 1.68 | N 1.58 | P 1.84 | Q 1.69 | R 2.06 | S 1.73 | T 1.71 | V 1.4 | W 1.69 | Y 2.01
D20: A 1.64 | C 1.41 | E 1.97 | F 2.19 | G 2.62 | H 2.64 | I 2.17 | K 2.6 | L 2.05 | M 1.98 | N 2.21 | P 2.25 | Q 2.33 | R 3.31 | S 1.81 | T 2.18 | V 2.58 | W 2.31 | Y 1.96
K21: A 2.35 | C 2.48 | D 1.78 | E 1.26 | F 1.95 | G 2.12 | H 2.01 | I 1.48 | L 1.29 | M 1.96 | N 1.9 | P 2.79 | Q 1.82 | R 1.69 | S 2.21 | T 1.86 | V 2.63 | W 2.12 | Y 1.95
H22: A 2.02 | C 2.17 | D 1.79 | E 3.04 | F 1.53 | G 2.31 | I 2.22 | K 1.54 | L 1.6 | M 1.7 | N 2.04 | P 1.16 | Q 1.53 | R 1.56 | S 1.62 | T 2.11 | W 2.05 | Y 1.91
S23: A 1.79 | C 1.12 | D 1.86 | E 1.81 | F 2.57 | G 1.76 | H 2.96 | I 2.01 | K 1.82 | L 1.93 | M 2.19 | N 1.43 | P 1.42 | Q 1.85 | R 1.78 | T 1.88 | V 2.4 | W 1.35 | Y 2.52
K24: A 1.85 | C 1.21 | D 2.22 | E 1.96 | F 1.36 | H 1.43 | I 2.06 | L 2.13 | M 2.11 | N 2.15 | P 1.9 | Q 1.64 | R 1.9 | S 1.65 | T 2.39 | V 1.74 | W 2.51 | Y 1.52
